Experimental data as given in US20140154261A1 (TORAY INDUSTRIES, published 2014).

T1: CAPRIN-1 protein on the cell surface of human cancer cell lines (human, UniProt Q14444 2-709)
T1 sequence (looked up): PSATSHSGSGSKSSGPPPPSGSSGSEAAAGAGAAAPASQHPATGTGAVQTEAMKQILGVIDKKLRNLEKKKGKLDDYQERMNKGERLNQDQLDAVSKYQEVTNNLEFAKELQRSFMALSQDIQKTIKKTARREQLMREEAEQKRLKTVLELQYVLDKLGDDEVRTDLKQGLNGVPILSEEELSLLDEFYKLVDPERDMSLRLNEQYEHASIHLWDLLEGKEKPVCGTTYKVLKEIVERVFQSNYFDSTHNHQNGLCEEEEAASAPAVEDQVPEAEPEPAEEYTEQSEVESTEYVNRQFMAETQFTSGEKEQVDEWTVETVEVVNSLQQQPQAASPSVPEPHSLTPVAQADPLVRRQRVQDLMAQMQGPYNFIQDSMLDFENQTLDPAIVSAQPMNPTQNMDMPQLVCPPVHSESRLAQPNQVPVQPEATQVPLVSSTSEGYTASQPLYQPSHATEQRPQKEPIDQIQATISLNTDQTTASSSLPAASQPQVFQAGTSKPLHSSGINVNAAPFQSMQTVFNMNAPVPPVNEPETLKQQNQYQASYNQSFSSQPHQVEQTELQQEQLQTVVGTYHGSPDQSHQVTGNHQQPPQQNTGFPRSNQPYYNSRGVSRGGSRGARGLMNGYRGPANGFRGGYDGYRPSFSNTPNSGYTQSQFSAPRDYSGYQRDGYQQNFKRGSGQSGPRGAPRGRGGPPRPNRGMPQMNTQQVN

B1: human-mouse chimeric comparative monoclonal antibody 7 (antibody, human IgG1, kappa, V domains shown)
VH: LQESGAELARPGASVKLSCKASGYTFTSYWMQWVKQRPGQGLEWIGAIYPGDGDTRYTQKFKGKATLTADKSSSTAYMQLSSLASEDSAVYYCARGEYGNYFAYWGQGTTVTVSS
VL: TSDASLGERVTITCKASQDINSYLSWFQQKPGKSPKTLIYRANRLVDGVPSRFSGSGSGQDYSLTISSLEYEDMGIYYCLQYDEFPLTFGGGTKLEIKQ
B2: human-mouse chimeric comparative monoclonal antibody 3 (antibody, human IgG1, kappa)
heavy: not shown
light: RTTSHMDSDIQLTQSPASLSASVGETVTITCRASGNIHNYLAWYQQKQGKSPQLLVYNAKTLADGVPSRFSGSGSGTQYSLKINSLQPEDFGSYYCQHFWSTLTFGGGTKLEIKQSDTVAAPSVFIFPPSDEQLKSGTASVVCLLNNFYPREAKVQWKVDNALQSGNSQESVTEQDSKDSTYSLSSTLTLSKADYEKHKVYACEVTHQGLSSPVTKSFNRGEC
B3: human-mouse chimeric comparative monoclonal antibody 4 (antibody, human IgG1, kappa, V domains shown)
VH: EVQLHQFGAELVKPGASVKISCKASGYTFTDYNMDWVKQSHGKSLEWIGDINPNYDSTSYNQKFKGKATLTVDKSSSTAYMELRSLTSEDTAVYYCARSRSYDYEGFAYWGQGTLVTVSA
VL: SGDRVSLSCRASQSISNYLHWYQQKSHESPRLLIKYASQSISGIPSRFSGSGSGTDFTLSINSVETEDFGMYFCQQSNSWPYTFGAGTKLEIKQ
B4: human-mouse chimeric comparative monoclonal antibody 1 (antibody)
heavy: not shown
light: DIQMTQSPASLSASVGETVTITCRASGNIHNYLAWYQQKQGKSPQLLVYNAKTLADGVPSRFSGSGSGTQYSLKINSLQPEDFGSYYCQHFWSTLTFGAGTKLELKRTVAAPSVFIFPPSDEQLKSGTASVVCLLNNFYPREAKVQWKVDNALQSGNSQESVTEQDSKDSTYSLSSTLTLSKADYEKHKVYACEVTHQGLSSPVTKSFNRGEC

Target: T1, CAPRIN-1 protein on the cell surface of …
Experiment: cell-based or functional assay

Binder	cytotoxic activity (ADCC, chromium 51 release) against MCF7, QG56, HCT-116, MIAPaCa-2 and Caki-2
B1	< 5%
B2	< 5%
B3	< 5%
B4	< 5%
